Test: soluble on expression in E. coli; label from the status in PepcDB or PDB records

Sequence	soluble on expression in E. coli
MDPLDRLIQLANLQGRLDQRCQLQGSWALEHPQAVPGEATFHIVMAGTCYCEFLDGGRLDLHPGDLILLPRGTPHLLRSDSPAQPCEPTVEHRGSIPLYQLNGPGEALDMLCGSYRYHAGASLFGALPERLLVHMDESTQQPLRALIGLMREEAESTRSGARSIIDALATALFALALRAYLDRQPLGDGLFGLLGDARLGRALRAMLERPEHAWTLEQLAQQAAMSRASFVRAFSALGGTSPWNLLTRIRMEKARGLLRQTQKSLLDIAAETGYQSEAAFSRNFRQAFGESPGRFRRQADSAR	not soluble
MSLKTPLKDEVFSFIDLETTGSCPIKHEILEIGAVQVKGGEIINRFETLVKVKSVPDYIAELTGITYEDTLNAPSAHEALQELRLFLGNSVFVAHNANFDYNFLGRYFVEKLHCPLLNLKLCTLDLSKRAILSMRYSLSFLKELLGFGIEVSHRAYADALASYKLFEICLLNLPSYIKTTMDLIDEGHHHHHH	not soluble
MTTRNPNRCPSHPGEILAESLEHLNASKTEIARILQISRQHLHGILKGERPVTAVTAARIGKLLGNGPALWLQLQANYDTWHALRDIDVSSIPTLTANEVDTQMEHSHS	not soluble
MGSIISRTIPGQGHGNQYYPGVQWDVRDSAWRYVTILDLPFSLVFDTLLLPIDIHHGPYELEHHHHHH	not soluble
MPADRYATGNGFTGIIRTRHQTFKRHRSAHRRNGQNPIGLPARSRWQPAGNQQLLIFRRLMQNKKQPAQAVFLAASLTPTAAPSSLPVGKR	not soluble
YIGSQDTPYTGGLINTFSYKNWELTANLSFNLGGYVRTTPSYNFINFDRGQNVNSDILDRWTPENTDGRLPALITSEKRADEYYWYDQKSEIYKNLDIWVKKLNYFRLQNLRLGYRLPEKMTKSLGMGSASVAIEGRNLLVFGSSYKNFLDPESMYNPYAPPIPKSITFSLNLNF	not soluble
GPGSMPERCIGITTVQVGHIVGRGGSTLKGIQERTGATLCIVENGLQVKITADDAAKVAAAEAEVHKIVASQQNPDYEGPCGARLRKEAVELGQKRSKLFEEATRMREAGDHEGANKLVAMAKKAGEDMKARHREAALAIAKHNNEEKGKGPNYFDMHGLHLEEAMEMLKVRMSKLEEKPVGSTTAFEVIPGAGHHSAPGTQKLKRATLEYVQWKGYPCEEVNAGAFLVKVPGLGEGVLSKPEDGDKVPTKPKESATGVANKPKASGSAAASKSKAQSCCACM	soluble
MRINEMALHEKPRERLITYGAKSLSNVELLAILLNTGRKGFSSIDIANELLKQQSTIRDLKKLSINDLLKIKGIGLYKAVILQAAFELGERINSTSTFDKVQITHPSDVASLMMSTMKDLEQEHFVVLLLNSKNIVTKQAWVYKGTLNSSIIHPREVFNIAIRESSNSIIVVHNHPSGDVTPSKEDITTTYRLKECGDILGINLLDHIIIGDNKFTSLVEAGYFDK	not soluble
GSTPITGPHIAYTEAVSDTQIMLKWTYIPSSNNNTPIQGFYIYYRPTDSDNDSDYKRDVVEGSKQWHMIGHLQPETSYDIKMQCFNEGGESEFSNVMICETK	soluble
MKKRYSWEELARAMGIEPQRLENKEARELKKFVDEMTWPTHCNYCQGLDLTNPNPVHHPSYELTPACNHDCIFCYSNVAVKLGKAPKPGYYGWDNPKVITISQYGEPLLSPRIVEVNKMLRKRFPEARLDLQTNGSLLTRELWEKLDFDLVMISLNAADREKHRRIANADTFEQVVNALKIVGEDKSVRSVVRTVFMPGINDEDIPKIAELAASLGIDEMHLQPLTIHELNVERLKKAGLDFERAESIRELLKAAMEAKKYIDVRISGCILVQLKQMDPITLYSVRRVAREVVPLVKRSKLDILEHHHHHH	not soluble
MGSDKIHHHHHHMFDWENVRHFLAVARIGTLSGAARSLKVDHATVSRRLSALEDEIKTRLIERLPRACKLTLIGQRVFELAQGMEEDAYAIERFVDASRSPLSGKVSLSAPPVLVAHFLAKHLADFRRVHPGVQLSVSGEARQISLSRREADVALRLVRPEEGTSVVRKLGRMSFDLYASRDYPHLHNPSAWEFISYDAGFTDMPQQKWLMSVARGRPIACEISDINGHLAATQAGAGVAGLPDFLADTDAKLQRVAYDGEPFSRDIWLAVHRDLRRSPHVRAVMDFLLKIVKENPAFTISG	not soluble
MGSDKIHHHHHHILVKNKIDNEFNWISMKEEQKLNVPIENQMPDLPNGCEVTSLSMLMNYYGIRVTKNELAQNIQHVSSFTNNGKYRGNPNQGFVGYMSIENAGWCVYNGPLYNVARKYTNRIQNATGSDFLSILKLVSDGHPVLIITTTTFNRVNNMQTWETNTGKVNVTPSSHACVITGYDKKKRIVYLNNPYGIKNQAVNWNNLENSYNQQGKQALYIK	not soluble
MLGNIAEISNPNERRQAVKALVSAVKSDEDDSVRAAATDALYQRGEDAFDYLVAELAEMGGSEATERTATTLLTEWLSADHLEFRMVAATALGERGATAAVPDLVRALTDPAPRVRTRAAQACGRLSDPRVVPPLSERLSDGRQQVREAAANALGAIGTDRALAELVPVTQADEEGLRLIAVDELGQFGSVKPVVVLVDALDDDSTTVQRAAMLSLLELLTTASTEELELIRGTVVDELARADVQATVPALLDIAADGTRRRYRQTAIWLLSRITGDRYRSEVIDCLLSTLDKPDEETAQLAEAVLPELRSPELEKRLRVYLSRERGSEEARSRAQAVLDEICDGSSGELVTTGVDYTYVDSPADYTNQHSSRD	not soluble
MRSFDFAPLHRASIGFDQIADLMDRVMSSDVGQPSYPPYNIEKTAADAYRISIAVAGFAETDLSVEVKENALVISARKAADEAERTFLHRGIATRAFERRFTLADHVRVTGASHENGMLHIDLKREIPEALKPRRIEIASVKSADTPERIEAKAVN	not soluble
MVDIDSAVEAARRRGARRIVLQLPEGMLQYGLYIAKCFEEMLGGAAQVYLHADPTFGACDLHYGELDTTVRPDLIVHVGHSPYPAELAHEGLEPRGRVVYVRALSKSQLPLDALREAAGLLASRYGVRRVGIATTAQHTHLAEKAAEVLRGEGLEVAVPPGLRPYFGAAQVLGCDYRLARGVRADGFVYVGGGVFHPLGLYLATLKPVVQVDPYRGVSEDLTREGEKLYRSRLYRVSQSIGARRWGIIVGLKSGQYRPWLVEKLARAIESAGGEYLLVASEVTTLSQLVAIDNPWFEAFTVTSCPRLPTDDFWSYEKPVLTPGEAMMALEGRLEPYRFPWAAALEHHHHHH	not soluble
MSTVSGLKRPQSSEKNHRDRVFVRATRGKVQKVVREQYLRNDIPCQSRACPLCRSKLPKDSRGNVLEPILSEKPMFLEKFGHHYLIPDSNIFYHCIDALEHPNNFFDVIILQTVFSEISSKSIPLYNRMKRLCQEKTKRFTPFSNEFFVDTFVERLDDESANDRNDRAIRNAASWFASHLASLGIKIVLLTDDRENARLAAEQGIQVSTLKDYVQYLPDSEILLDMVSAIADAIASKEQVESGTKNVYELHWSMSRLLACIKNGEVHKGLINISTYNYLEGSVVVPGYNKPVLVSGRENLNRAVQGDIVCIQILPQDQWKTEAEEIADDDEDVVVSTAAEPDSARINDLELITKRNAHPTAKVVGILKRNWRPYVGHVDNATIAQSKGGSQQTVLLTPMDRRVPKIRFRTRQAPRLVGRRIVVAIDLWDASSRYPEGHFVRDLGEMETKEAETEALLLEYDVQHRPFPKAVLDCLPEEGHNWKVPADKTHPLWKNRKDFRDKLICSIDPPGCQDIDDALHACVLPNGNYEVGVHIADVTHFVKPNTSMDSEAASRGTTVYLVDKRIDMLPMLLGTDLCSLRPYVERFAFSCIWEMDENANIIKVHFTKSVIASKEAFSYADAQARIDDQKMQDPLTQGMRVLLKLSKILKQKRMDEGALNLASPEVRIQTDNETSDPMDVEIKQLLETNSLVEEFMLLANISVAQKIYDAFPQTAVLRRHAAPPLTNFDSLQDILRVCKGMHLKCDTSKSLAKSLDECVDPKEPYFNTLLRILTTRCMLSAEYFCSGTFAPPDFRHYGLASPIYTHFTSPIRRYADVLAHRQLAAAIDYETINPSLSDKSRLIEICNGINYRHRMAQMAGRASIEYYVGQALKGGVAEEDAYVIKVFKNGFVVFIARFGLEGIVYTKSLSSVLEPNVEYVEDEYKLNIEIRDQPKPQTVQIQMFQQVRVRVTTVRDEHSGKQKVQITLVY	soluble
MVKQISVFVENKPGRLAAVTEVLMKHNINIRAFTIADAGDFGIIRMVVDKTDEAYQALKEAGFTVRLTNVLAVEVEDKPGALHRIAKALGDAGVNIDYVYAFTSEKHKALIIFRVDDREKAKEVLEKLGVLFKGEIN	not soluble
MYLACLAKFSQNVELRKMLFRTQDMYLVEASGNDAIWGNGIWKEDKRSDDVANWHGTNYLGEILDRIRGELIGKPEFAAEKEAVQLESLEQRIQMLMA	not soluble
SKDVLADYKELFRQFSISDIAVWVSTPSFAGVCITEKEFNSKMLPNLESMIFIGEALSKNLTKELMSRFPNTRIINGYGPTEATVGVSVNDMTQKAIDDEK	not soluble
MGKRSGASYRSRRPKLACADWDKRMMQTQPFRLPRFTPFGVIEKGVELATGLSQLERYYQQRPTTRDGFEFMRYTLEALNVHYQVDRGRVEQIPAQGPVVIVANHPLGAIEGVILADLVGQVRKDVKVLANQLLKRLPEIEPLFIGVDVFNGAQASKTNARGIREAHRHLAEGGVLIVFPAGEVSTPQKETGQLSDIDWSQSVAKFIQRSQARCVPIYIHGRNSAWFYRAGKIHPLLRTAMLGRELLNKSASTISLCIGQPIPYAELKEFTKDEDVVNYLRLNTYLMSPHGQVESAKVSFTIPVIDPVPKAALIAELAQLDKQAKLLEQGEFTVYCVPSTHIPLMMQEIGRVREISFRAVGEGSGQACDVDAYDHHYWQLFVWNREQSELVGAYRMGLVDKIVAERGLQGLYSRSLFHYDHAFLATLENAIELGRSVVAEQYQRNLNSLLLLWKGIARFVELNPHYTHLFGPVSISNDYSPAARQLMAATLSIHHYDQHKAALVSPSTPLRAGTEVFWQKSLLSALASVSLLSKVVARMEQGNGLPVLLRQYLGMNGKLVCLNVDPAFNDALDGLIVVNLKQVPLKTLAKYMGKEAAQHYLCSVT	not soluble
MKKIIAILLLVIGSIGIGKDLDQYESKRVFDKIIEVALTGDYEKYKNDKEMTNALEELVKASEYLDVHRIFSDGNKYIVLDVEEQGNRSILTVKAVYKIYRDISEEKYRQIMEREVLELMKYDMEEIDEKTYKKNVYNIITDIAGNDFEIKEEVIKMNMIKKEKWDMEDNSDLIQRLYPAIFYMMESLNKRYFKTSEEGNI	not soluble
MSRLRSTPIPGTRDSYTQVDFNLGFHVRHYDVSLDYVVAPNRLKAVVTLSMDTYQPLRSLTLDLSDALTVKSVTAQGTSAVAVRVQKFRHRNHKLRISFTEEIPVDQEFKITVTYSGNPRPIRSTWGLIGWEELSNGSLVASQPNGARSWLPCDDTPDEK	not soluble
MSLAQLIFDEEKVTSVIDRIVKRTFQMDFAWDWPGGVAFYGVAEAYEATENEEYINLLKTWVDEQLEDGLPPLSINGVSIGHTLLFLHKVTGDDVYLETAAEMAEYVLHKAPRFGEGILQHTVNAAEYVFPEQAWADTLMMAGLFMLRIGRVMEREDYFEDGLRQFHGHEDVLQDPVTNLYYHAWDNKAQNHLSGIYWGRANGWAALTMAKALPLIEVTHPSFMIIDGSLRDQLSALVRLQDESGLWHTILDDPDSYLEVSASAGIASALMSSGKLYTKYVQKSLAAILDAVEEDGRVSRVSAGTAVMKNAEGYKQVPYKRIQGWGQGLALTFLADVLKTKKRLYQEGHHHHHH	soluble
